Results published in patent US20240301052A1 (LANOVA MEDICINES DEVELOPMENT, published 2024).

Assays:
[1] = molecular target: T1, human SLC34A2 (human, UniProt O95436 1-690); experiment: FACS, RMG-1 cells
T1 construct: whole, on cells; also called human solute carrier 34 A2; NaPi2b
T1 sequence (looked up): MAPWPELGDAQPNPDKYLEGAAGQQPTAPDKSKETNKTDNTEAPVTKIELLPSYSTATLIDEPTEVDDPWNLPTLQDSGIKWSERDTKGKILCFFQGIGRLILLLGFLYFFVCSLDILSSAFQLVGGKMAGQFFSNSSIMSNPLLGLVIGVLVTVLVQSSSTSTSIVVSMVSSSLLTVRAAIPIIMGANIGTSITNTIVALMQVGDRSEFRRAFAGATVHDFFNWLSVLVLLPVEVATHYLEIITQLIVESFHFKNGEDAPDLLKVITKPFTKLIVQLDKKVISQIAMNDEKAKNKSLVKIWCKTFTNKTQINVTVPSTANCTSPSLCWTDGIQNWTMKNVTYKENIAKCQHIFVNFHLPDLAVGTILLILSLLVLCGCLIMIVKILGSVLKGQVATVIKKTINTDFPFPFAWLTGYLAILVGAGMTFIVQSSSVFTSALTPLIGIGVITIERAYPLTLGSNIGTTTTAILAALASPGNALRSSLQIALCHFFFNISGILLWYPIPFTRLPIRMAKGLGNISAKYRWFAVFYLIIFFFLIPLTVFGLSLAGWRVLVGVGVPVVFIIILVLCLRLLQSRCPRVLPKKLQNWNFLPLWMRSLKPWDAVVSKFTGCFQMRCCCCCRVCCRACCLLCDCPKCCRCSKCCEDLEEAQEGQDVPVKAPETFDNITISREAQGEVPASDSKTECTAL
Protocol: (§1) In another testing, cell based binding of hu Abs on human SLC34A2 expressing cells were assessed using flow cytometry. Briefly, the HEK293/H_SLC34A2, OVCAR3 and RMG-1 cells were incubated with hu Abs. After incubation at 4° C. for 60 minutes, the cells were washed with FACS buffer twice, then stained with fluorescent conjugated secondary antibody at 4° C. for 30 minutes. After that the cells were washed twice and analyzed by flow cytometry.

[2] = molecular target: T1, human SLC34A2; experiment: FACS, OVCAR3 cells
[3] = molecular target: T1, human SLC34A2; experiment: FACS, OVCAR3 cells; remark: listed apart in the source
Protocol: as §1

[4] = molecular target: T1, human SLC34A2; experiment: cell-based or functional assay
[5] = molecular target: T1, human SLC34A2; experiment: FACS, HEK293/human SLC34A2 cells
Protocol: as §1

[6] = molecular target: T2, Rhesus SLC34A2 (Rhesus, UniProt F7HDA3 1-690); experiment: FACS, HEK293/Rhesus SLC34A2 cells
T2 construct: whole, on cells
T2 sequence: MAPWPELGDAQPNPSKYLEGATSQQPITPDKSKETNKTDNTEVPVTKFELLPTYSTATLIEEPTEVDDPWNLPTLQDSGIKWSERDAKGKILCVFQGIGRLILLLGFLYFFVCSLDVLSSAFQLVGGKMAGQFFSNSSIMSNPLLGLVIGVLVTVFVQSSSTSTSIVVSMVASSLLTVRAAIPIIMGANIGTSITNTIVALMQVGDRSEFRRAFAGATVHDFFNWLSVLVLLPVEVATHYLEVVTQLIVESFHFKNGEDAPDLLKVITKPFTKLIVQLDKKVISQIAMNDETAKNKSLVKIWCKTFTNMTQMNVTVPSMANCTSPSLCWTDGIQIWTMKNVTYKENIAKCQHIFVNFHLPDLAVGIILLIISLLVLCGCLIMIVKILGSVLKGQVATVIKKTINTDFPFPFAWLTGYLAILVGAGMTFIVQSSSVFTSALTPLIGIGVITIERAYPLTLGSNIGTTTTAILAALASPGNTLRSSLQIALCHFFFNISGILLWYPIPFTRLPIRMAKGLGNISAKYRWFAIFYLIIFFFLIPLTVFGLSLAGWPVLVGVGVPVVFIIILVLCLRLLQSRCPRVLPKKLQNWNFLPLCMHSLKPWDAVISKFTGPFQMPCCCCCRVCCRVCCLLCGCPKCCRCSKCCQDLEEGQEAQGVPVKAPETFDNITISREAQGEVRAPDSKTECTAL

Binder | EC50 [1] [nM] | Top [1] [MFI] | EC50 [2] [nM] | Top (MFI) [2] [MFI] | EC50 [3] [nM] | Top [3] [MFI] | ADCC reporter EC50 [4] [nM] | ADCC reporter Top (MFI) [4] [MFI] | EC50 [5] [nM] | Top [5] [MFI] | EC50 [6] [nM] | Top (MFI) [6] [MFI]
91C9F1.p1.z6 hIgG1 (antibody, V domains shown, humanized hIgG1) VH: QVQLVQSGAEVKKPGSSVKVSCKTSGFFFTEYIIHWVRQAPGQGLEWIGGIIPNNDVTNYKQNFRGRVTLTADKSTSTAYMELSSLRSEDTAVYYCARWRNAYYSAMDSWGQGTTVTVSS VL: DIQMTQSPSSLSTSVGDRVTITCTASQDVGTAVAWYQQKPGKSPKLLIYWASTRHTGVPERFSGSGSGTDFTLTISSLQPEDVATYFCQQYRTSPLTFGGGTKVEIK | 3.03 | 9560 | 1.72 | 36100 | 2.86 | 20300 | 1.77 | 125000 | 1.72 | 36100 | 8.8 | 8160
91C9F1.p1.z4 hIgG1 (antibody, V domains shown, humanized hIgG1) VH: QVQLVQSGAEVKKPGSSVKVSCKASGFFFTEYIIHWVRQAPGQGLEWMGGIIPNNDVTNYKQNFRGRVTITADESTSTAYMELSSLRSEDTAVYYCARWRNAYYSAMDSWGQGTTVTVSS VL: DIVVTQSPSSLSTSVGDRVTITCTASQDVGTAVAWYQQKPGKSPKLLIYWASTRHTGVPERFTGSGSGTDFTLTISSVQPEDVATYFCQQYRTSPLTFGVGTKLELK | 3.22 | 9820 | 1.12 | 34600 | 2.71 | 20200 | 3.14 | 137000 | 1.12 | 34600 | 3.2 | 6720
91C9F1.p1.z10 hIgG1 (antibody, V domains shown, humanized hIgG1) VH: QVQLVQSGAEVVKPGSSVKVSCKTSGFFFTEYIIHWVRQSPGQGLEWIGGIIPNNDVTNYKQNFRGRATLTADKSTSTAYMELSSLRSEDTAVYYCARWRNAYYSAMDSWGQGTTVTVSS VL: DIQMTQSPSSLSTSVGDRVTITCTASQDVGTAVAWYQQKPGKSPKLLIYWASTRHTGVPERFSGSGSGTDFTLTISSLQPEDVATYFCQQYRTSPLTFGGGTKVEIK | 3.91 | 9590 | 2.32 | 38100 | 3.96 | 22300 | 2.37 | 138000 | 2.32 | 38100 | 4.2 | 9230
